Biological target: human receptor for C5a (human) (UniProt P21730)
Assay: cell-based or functional assay

UniProt P21730, sequence (P21730 whole entry): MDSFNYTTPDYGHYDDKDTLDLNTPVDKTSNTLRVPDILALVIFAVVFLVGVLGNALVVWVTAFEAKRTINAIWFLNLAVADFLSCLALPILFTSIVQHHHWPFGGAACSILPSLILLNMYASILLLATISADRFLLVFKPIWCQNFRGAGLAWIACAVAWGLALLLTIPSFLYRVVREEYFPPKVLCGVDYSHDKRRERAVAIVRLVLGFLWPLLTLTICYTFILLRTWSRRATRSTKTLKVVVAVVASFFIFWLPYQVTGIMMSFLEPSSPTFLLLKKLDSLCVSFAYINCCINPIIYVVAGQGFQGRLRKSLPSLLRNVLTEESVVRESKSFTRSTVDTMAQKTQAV

Substance | half effective concentrations (EC50), chemotaxis (migration) of BA/F3/huC5aR cells
recombinant human C5a (from UniProt P01031 678-751) (ligand) | 0.1 nM
mouse C5a (from UniProt P06684 679-755) (ligand) | 0.3 nM

From patent EP4620474A1
